Experimental data taken from the Human Domainome abundance scans (Beltran et al. 2025).

B1: E3 ubiquitin-protein ligase NEDD4, residues 836 to 881; numbered along this chain, P46934 (parent)
chain: EIEQGFLPKGWEVRHAPNGRPFFIDHNTKTTTWEDPRLKIPAHLRG

Variants of: B1
Experiment: abundance fitness (aPCA) (normalised: wild type 0, dead -1); higher = more abundant; growth selection in yeast, the domain comes from the species named
Settings: Homo sapiens

Abundance fitness: each site, then its substitutions
H26: S -0.47, I -0.078, K -0.342, G -0.501, Q -0.381, D -0.515, Y -0.749, L -0.507, V -0.423, N -0.449, E -0.591, R -0.45, T -0.357, W -0.327, M -0.262, C -0.388, F -0.209, A -0.69
I40: P -0.335, V -0.007, G 0.028, L -0.042, W -0.055, M -0.026, R -0.018, F -0.239, C -0.343, H -0.17, T 0.04, E -0.233, K 0.095, Q 0.085, D -0.193, Y -0.27, S 0.009, N -0.154, A 0.002
E34: H -0.172, S -0.163, L -0.155, C -0.268, D -0.312, T -0.37, Q -0.345, W -0.306, V -0.169, M -0.054, G -0.51, R -0.307, K -0.369, P -1.08, Y -0.272, A -0.182
T31: M -0.234, E -0.44, D -0.576, H -0.578, G -0.398, A -0.004, F -0.42, V -0.185, L -0.356, Q -0.158, P -0.901, S 0.006, N -0.727, K -0.572, Y -0.511, W -0.311, C -0.064
K39: R 0.003, I -0.297, Q -0.372, C 0.32, W -0.298, S -0.098, H -0.355, D -0.241, L -0.144, T -0.023, G -0.065, E 0.062, F -0.421, M -0.101, A -0.085, V -0.201, Y -0.319
N27: L -0.417, A -0.295, G -0.382, M -0.409, P -0.935, Y -0.593, C -0.405, H -0.543, K -0.168, W -0.827, S -0.302, Q -0.364, D -0.12, F -0.189, T -0.091, I -0.105
W33: S -0.307, R -0.506, N -0.431, D -0.484, E -0.221, K -0.462, Q -0.337, L -0.433, C -0.653, F -0.142, G -0.372, A -0.365, V -0.243
T30: A -0.368, M -0.206, R -0.2, L -0.297, K -0.133, E -0.206, F -0.466, I -0.056, G -0.595, H 0.276, S -0.136, N -0.566, Y -0.818, D -0.347, W -1.38, V -0.202, Q -0.216, P -0.961
T32: M -0.705, Y -0.564, S -0.115, F -0.574, Q 0.038, R -0.648, H -0.033, W -0.807, G -0.619, V -0.456, K -0.775, D -1.05, E -0.655, C -0.538, A -0.779, I -0.471, L -0.85
A42: E 0.027, N -0.015, V -0.128, G -0.013, P -0.075, C -0.135, Y -0.252, L -0.147, S -0.092, M -0.181, H -0.086, K -0.092, R -0.273, D -0.111, I -0.398, Q 0.02, W -0.316, T -0.22, F -0.223
T28: N 0.035, D -0.327, K -0.251, V -0.78, G -0.187, W -0.971, F -0.776, H -0.338, P -0.823, E -0.218, S -0.201, M -0.487, A -0.383, Y -0.548, I -0.901, L -0.341
R45: E 0.153, A -0.005, G 0.005, F -0.174, C 0.019, D 0.104
D25: S -0.84, T -0.94, W -0.86, V -0.981, Y -0.768
L38: Q -0.091, Y -0.435, W -0.105, A -0.103, P -0.072, D 0.036, M -0.066, E -0.093, H -0.292, K -0.105, G -0.018, N -0.166, I -0.043, T 0.033, V -0.051, R -0.012, S -0.019
L44: K -0.154, A 0.08, R -0.221, H 0.116, C 0.004, S -0.001, D 0.116, M -0.002, N -0.34, P 0.119, Q 0.033, I -0.053, W -0.188, F -0.423, T -0.027, G 0.056, E -0.07, Y -0.172
H43: K -0.04, E 0.105, W -0.311, Q 0.007, S 0.019, P 0.094, D -0.177, A -0.105, N -0.084, V -0.052, L -0.107, M -0.251, I -0.156, G -0.078, F -0.232, T 0.059, C -0.22, Y -0.041, R -0.195
K29: Y -1, T -0.577, H -0.224, N -0.089, A -0.237, S -0.231, Q -0.063, L -0.343, C -0.323, P -0.889, V -0.82, E -0.324, M -0.303, F -0.446, G -0.002, I -0.954
P36: E -0.283, F -1.04, M -1.06, W -0.954, N -0.818, S -1.09, H -0.71, C -0.958, V -0.96, Y -0.713, K -0.846, L -1.01, Q -1.03, D -0.893, G -0.927, A -0.629
R37: G -0.586, W -0.812, H -0.268, Q -0.665, F -0.672, C -0.611, E -0.752, L -0.399, P -0.867, K -0.758, V -0.597, A -0.567, I -0.75, S -0.472, Y -0.784, M -0.364, T -0.256
D35: Y -0.906, V -0.762, L -0.623, K -0.814, I -0.895, T -0.84, M -0.734, A -0.216, W -0.849, P -0.582, H -0.418, R -0.554, N -0.979, G -0.593, E -0.795, S -0.691
P41: L -0.469, R -0.117, H 0.051, Q -0.32, S -0.139, I 0.029, G -0.423, M -0.353, A -0.078, W -0.49, T -0.158, V -0.141, D -0.16, F -0.57, Y -0.607, K -0.08, N 0.005, E -0.167
